T1: human DLL3-his protein (human, UniProt Q9NYJ7 27-492)
T1 construct: also called human DLL3 protein; DLL3 antigen protein; not shown: His tag
T1 sequence: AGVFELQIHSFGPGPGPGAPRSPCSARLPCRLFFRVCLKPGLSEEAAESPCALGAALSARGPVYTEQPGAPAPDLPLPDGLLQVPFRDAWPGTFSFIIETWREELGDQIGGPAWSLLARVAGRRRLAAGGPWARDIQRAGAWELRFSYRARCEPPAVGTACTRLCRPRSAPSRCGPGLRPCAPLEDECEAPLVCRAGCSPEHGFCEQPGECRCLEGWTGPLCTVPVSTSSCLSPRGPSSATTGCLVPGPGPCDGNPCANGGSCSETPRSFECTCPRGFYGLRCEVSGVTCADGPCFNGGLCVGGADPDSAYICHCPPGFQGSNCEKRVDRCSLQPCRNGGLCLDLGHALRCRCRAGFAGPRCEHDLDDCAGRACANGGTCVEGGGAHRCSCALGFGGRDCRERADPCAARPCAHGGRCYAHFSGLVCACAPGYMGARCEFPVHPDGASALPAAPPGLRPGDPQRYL

T2: monkey DLL3 on CHO K1-cyno DLL3 cells (cynomolgus monkey)
T2 construct: also called monkey DLL3 recombinant cell line
T2 chain: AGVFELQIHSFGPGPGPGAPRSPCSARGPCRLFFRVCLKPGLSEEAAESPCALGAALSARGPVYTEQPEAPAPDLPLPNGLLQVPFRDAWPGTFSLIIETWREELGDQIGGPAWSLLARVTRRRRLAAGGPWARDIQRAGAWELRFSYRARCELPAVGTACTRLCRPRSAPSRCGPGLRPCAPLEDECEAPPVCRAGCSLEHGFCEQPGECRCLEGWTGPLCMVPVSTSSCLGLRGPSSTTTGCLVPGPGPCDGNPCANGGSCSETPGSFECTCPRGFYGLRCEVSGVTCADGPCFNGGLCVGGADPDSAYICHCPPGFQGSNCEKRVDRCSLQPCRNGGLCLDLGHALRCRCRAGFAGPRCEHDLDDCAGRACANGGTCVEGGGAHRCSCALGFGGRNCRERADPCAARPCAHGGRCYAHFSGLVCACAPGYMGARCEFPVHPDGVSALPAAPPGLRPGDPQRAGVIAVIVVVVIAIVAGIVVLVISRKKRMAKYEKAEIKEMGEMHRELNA

T3: human DLL1 protein (human, UniProt O00548 18-540, limits assumed)
T3 construct: bought protein; construct and tag not described; also called hDLL1
T3 sequence (looked up): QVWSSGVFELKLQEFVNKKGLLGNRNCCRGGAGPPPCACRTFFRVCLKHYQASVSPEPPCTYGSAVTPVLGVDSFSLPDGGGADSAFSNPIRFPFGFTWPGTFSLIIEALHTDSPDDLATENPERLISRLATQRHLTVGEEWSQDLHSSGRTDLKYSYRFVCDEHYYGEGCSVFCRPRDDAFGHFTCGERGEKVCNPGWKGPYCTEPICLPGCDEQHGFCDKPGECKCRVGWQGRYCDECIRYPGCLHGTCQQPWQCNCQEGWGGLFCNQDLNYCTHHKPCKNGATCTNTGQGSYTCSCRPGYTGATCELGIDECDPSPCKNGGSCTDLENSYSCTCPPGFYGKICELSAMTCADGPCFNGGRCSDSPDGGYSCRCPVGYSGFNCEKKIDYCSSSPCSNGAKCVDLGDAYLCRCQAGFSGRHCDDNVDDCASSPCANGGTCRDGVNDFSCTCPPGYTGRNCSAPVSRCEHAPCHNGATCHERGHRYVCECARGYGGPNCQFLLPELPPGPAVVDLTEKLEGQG

T4: human DLL3 protein (extracellular segment, His tag) (human, UniProt Q9NYJ7 27-492)
T4 construct: also called human DLL3-his protein; DLL3 antigen; not shown: His tag
T4 sequence: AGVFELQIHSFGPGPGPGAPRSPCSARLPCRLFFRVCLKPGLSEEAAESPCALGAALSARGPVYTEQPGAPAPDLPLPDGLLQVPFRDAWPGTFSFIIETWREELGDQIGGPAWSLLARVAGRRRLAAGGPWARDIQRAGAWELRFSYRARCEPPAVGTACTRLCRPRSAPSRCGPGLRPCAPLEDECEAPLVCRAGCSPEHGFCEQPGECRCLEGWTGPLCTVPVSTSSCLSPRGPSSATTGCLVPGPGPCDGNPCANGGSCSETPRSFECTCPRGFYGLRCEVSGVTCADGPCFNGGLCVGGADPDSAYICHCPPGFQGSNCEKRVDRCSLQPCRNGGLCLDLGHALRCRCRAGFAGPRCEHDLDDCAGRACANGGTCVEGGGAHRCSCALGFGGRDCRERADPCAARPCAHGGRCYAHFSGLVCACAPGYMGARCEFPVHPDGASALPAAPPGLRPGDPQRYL


Legend:
human DLL3-his protein = target: T1, human DLL3-his protein; experiment: ELISA
[1] = target: T2, monkey DLL3 on CHO K1-cyno DLL3 cells; experiment: FACS, CHO K1-cyno DLL3 cells
human DLL1 protein = target: T3, human DLL1 protein; experiment: ELISA, maximum over 0.1-100 nM
human DLL4 protein = target: T5, human DLL4 protein (human, UniProt Q9NR61 27-524, limits assumed); experiment: ELISA, maximum over 0.1-100 nM
T5 construct: bought protein; construct and tag not described; also called hDLL4
T5 sequence (Q9NR61 27-524 limits assumed): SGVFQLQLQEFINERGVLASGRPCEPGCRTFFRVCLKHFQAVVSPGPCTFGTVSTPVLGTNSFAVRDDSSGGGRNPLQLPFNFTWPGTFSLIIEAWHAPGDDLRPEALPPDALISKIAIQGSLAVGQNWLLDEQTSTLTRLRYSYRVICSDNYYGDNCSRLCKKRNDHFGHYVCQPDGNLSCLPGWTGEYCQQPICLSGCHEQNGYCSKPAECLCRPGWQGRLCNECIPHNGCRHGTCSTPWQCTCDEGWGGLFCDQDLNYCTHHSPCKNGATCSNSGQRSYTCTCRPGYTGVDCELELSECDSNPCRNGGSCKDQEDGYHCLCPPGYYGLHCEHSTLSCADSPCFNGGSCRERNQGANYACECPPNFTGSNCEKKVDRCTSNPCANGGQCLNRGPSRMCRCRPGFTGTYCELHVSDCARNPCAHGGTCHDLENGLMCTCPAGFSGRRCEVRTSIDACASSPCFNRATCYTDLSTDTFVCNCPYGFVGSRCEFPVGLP

[2] = target: T4, human DLL3 protein (extracellular …); experiment: SPR (Biacore 8K), antibody captured on Protein A chip, DLL3 antigen in solution, 1:1 Langmuir fit

Binder	binding result (human DLL3-his protein)	binding result [1]	Emax of OD450 nm binding value (human DLL1 protein) [OD450]	Emax of OD450 nm binding value (human DLL4 protein) [OD450]	Kd [2] [pM]	koff [2] [s⁻¹]	kon [2] [M⁻¹ s⁻¹]
mab016 scFv-hFc (Fc fusion, human-murine chimeric scFv-hFc, VL-linker-VH-human IgG1 Fc; not shown: linker; Fc fragment of human IgG1) scFv (part 1 of 2): DIVMTQSQKFMSTTIGDRVSITCKASQNVGTTVAWYQQKPGQSPNLLLYSTSNRFTGVPDRFTGSGSGTDFTLTITNMQSEDLADYFCQQYNNYPLTFGGGTKLEIK scFv (part 2 of 2): EVNLEESGGGLVQPGGSMKLSCVASGFAFSNFWMQWVRQSPEKGLEWVAQIRLKSDNYAAHYAESVKGRFTISRDDSKSSVYLQLNNLRAEDTGTYYCTQGNWVGFAYWGQGTLVTVSA	binds	binds	0.05	0.04	–	–	–
mab001 scFv-hFc (Fc fusion, human-murine chimeric scFv-hFc, VL-linker-VH-human IgG1 Fc; not shown: linker; Fc fragment of human IgG1) scFv (part 1 of 2): not shown scFv (part 2 of 2): QIQLVQSGPELKKPGETVKISCKASGYTFTTYGMSWVKQAPGKGLKWMGWINTYSGVPTYADDFKGRFAFSLETSASTAYLQINNLKNEDTATYFCARIGDYDYGEYWGQGTLVTVSA	binds	binds	0.05	0.05	–	–	–
BI3 (antibody, human IgG1, kappa, V domains shown, control antibody in complete IgG format, variable regions from WO2019234220A1) VH: QVQLVQSGAEVKKPGASVKVSCKASGYTFTSYYVHWVRQAPGQGLEWMVIINPGGGTTSYAQKFLGRVTMTRDTSTNTVYMELKSLRSEDTAVYYCARGEAVTGNYFYYGMDVWGQGTTVTVSS VL: DIQMTQSPSAMSASVGDRVTITCRASQGISNYLVWFQQKPGKAPKRLIYAVSSLYSGVPSRFSGSGSGTEFTLTISSLQPEDFATYYCLQHDSYPYTFGQGTKLEIKR	–	–	–	–	49.7	4.7e-05	945000
mab002 scFv-hFc (Fc fusion, human-murine chimeric scFv-hFc, VL-linker-VH-human IgG1 Fc; not shown: linker; Fc fragment of human IgG1) scFv (part 1 of 2): QIVLTQSPAIMSASPGEKVTMTCSARSSVSYMQWYQQKSGTSPKRWIYDTSKLASGVPARFSGSGSGTSYSLTISTMEAEDAATYYCQQWSSDPPTFGGGTKLEIK scFv (part 2 of 2): QIQLVQSGPELKKPGETVKISCKASGYTFTNYGMNWLKQAPGKGLKWMGWINTYTGESTYADDFKGRFAFSLETSASTVYLQINNLKNEDMATYFCARMGDGYYDFTMDYWGQGTSVTVSS	binds	binds	0.05	0.05	–	–	–
mab003 scFv-hFc (Fc fusion, human-murine chimeric scFv-hFc, VL-linker-VH-human IgG1 Fc; not shown: linker; Fc fragment of human IgG1) scFv (part 1 of 2): DVQITQSPSYLAASPGETITINCRASKSISKYLAWYQEKPGKTNKLLIYSGSTLHSGIPSRFSGSGSGTDFTLTISSLEPEDFAIYYCQQHNEYPLTFGGGTKLELK scFv (part 2 of 2): QVQLQQSGTELMKPGASVKLSCKATGYTFTGNWIEWVKQRPGHGLEWIGEILPGTGSTQYNEKFKGKATFTADPSSNTAYMQLSSLTTEDSAIYYCARWGSTVVAYDYWGQGTTLTVSS	binds	binds	0.06	0.05	–	–	–
mab004 scFv-hFc (Fc fusion, human-murine chimeric scFv-hFc, VL-linker-VH-human IgG1 Fc; not shown: linker; Fc fragment of human IgG1) scFv (part 1 of 2): DIVLTQSPASLAVSLGQRATISCRASESVDYDGDSYMNWYQQKPGQPPKLLIYVASNLESGIPARFSGSGSGTDFILNIHPVEEEDAATYYCLQSNEAPYTFGSGTKLEIK scFv (part 2 of 2): QVQLQQPGAELVKPGASVKLSCKASGYTFTSYWINWVKQRPGQGLEWIGNIYPGSSSPNYNEKFKSKATLTVDTSSSTAYMQLSSLTSDDSAVYYCARSLLYAMDYWGQGTSVTVSS	binds	binds	0.05	0.04	–	–	–
mab005 scFv-hFc (Fc fusion, human-murine chimeric scFv-hFc, VL-linker-VH-human IgG1 Fc; not shown: linker; Fc fragment of human IgG1) scFv (part 1 of 2): DIVLTQSPATLSVTPGDSVSLSCRASQSVSNDLHWYQQKSHESPRLLIKYASQSISGIPSRFSGSGSGTDFTLTINSVETEDFGMYFCQQSNNWPYTFGGGTKLEMK scFv (part 2 of 2): QVQLQQSGAELMKPGASVTLSCKATGYTLPGYWIEWVKQRPGHGLEWIGEILPGSSSANYNEKFKGKATFTADTSSNTAYMQLSSLTTEDSAIYYCASTYGTSLDYWGQGTTLTVSS	binds	binds	0.05	0.04	–	–	–
mab006 scFv-hFc (Fc fusion, human-murine chimeric scFv-hFc, VL-linker-VH-human IgG1 Fc; not shown: linker; Fc fragment of human IgG1) scFv (part 1 of 2): DVQITQSPSYLAASPGETITINCRATKSISKYLAWYQEKPGKTNKLLIFSGSTLQSGIPSRFRGSGSGTDFTLTISSLEPEDFAMYYCQQHHEYPYTFGGGTKLEIK scFv (part 2 of 2): QVQLQQPGAELVRPGTSVKLSCKASGYTFTSYWMHWVRQRPGQGLEWIGVIDPSDSLANYNQEFKGKATLTVDTSSSTAYMQLSSLTSEDSAVYYCARDSTVVAPMDYWGQGTSVTVSS	binds	binds	0.08	0.07	–	–	–
mab007 scFv-hFc (Fc fusion, human-murine chimeric scFv-hFc, VL-linker-VH-human IgG1 Fc; not shown: linker; Fc fragment of human IgG1) scFv (part 1 of 2): DVQITQSPSYLAASPGETITINCRASTSISKYLAWYQERPGKTNKLLIYSGSTLQSGIPSRFRGSGSGTDFTLTISSLEPEDFAMYYCQQHHVYPYTFGGGTKLEIK scFv (part 2 of 2): QVQLQQPGAELVRPGTSVKLSCKASGYTFTSYWMHWVKQRPGQGLEWIGVIDPSDSLANYNQEFKGKATLTVDTSSSTAYMQLSSLTSEDSAVYYCARDSTVVAPMDYWGQGTSVTVSS	binds	binds	0.07	0.06	–	–	–
mab008 scFv-hFc (Fc fusion, human-murine chimeric scFv-hFc, VL-linker-VH-human IgG1 Fc; not shown: linker; Fc fragment of human IgG1) scFv (part 1 of 2): DIVMTQSQKFMSTSVGDRVSITCKASQNVGTAVAWYQQKPGQSPKLLIFSASIRYTGVPDRFTGSGSGTDFTLTISNMQSEDLADYFCQQYSSSPYTFGGGTKLEIK scFv (part 2 of 2): EVQLQQSGPVLVKPGASVKMSCKASGYTFTDYYMNWVKRSHGKSLEWIGIINPYNGGTSYNQKFRGKATLTVDKSSNTAYMELNSLTSEDSAVYYCSRYDYDYDVEGAMDYWGQGTSVTVSS	binds	binds	0.09	0.08	–	–	–
mab012 scFv-hFc (Fc fusion, human-murine chimeric scFv-hFc, VL-linker-VH-human IgG1 Fc; not shown: linker; Fc fragment of human IgG1) scFv (part 1 of 2): DVLMTQTPLSLPVSLGDQASISCRSSQSIVHSDGNTYLEWYLQKPGQSPKLLIYKVSNRFSGVPDRFSGSGSGTDFTLKISRVEAEDLGFYYCFQGSHVPFTFGSGTKLEIK scFv (part 2 of 2): QVQLQQSGPELVKPGASVKISCKASGYTFTDYYIHWVKQRPGQGLEWIGWTLPGSGSPYYNEKFKGKATLTVDKSSSTAYMLLSSLTSEDSAVYFCARWHYYYGSSYHFDYWGQGTTLTVSS	binds	binds	0.08	0.08	–	–	–
mab014 scFv-hFc (Fc fusion, human-murine chimeric scFv-hFc, VL-linker-VH-human IgG1 Fc; not shown: linker; Fc fragment of human IgG1) scFv (part 1 of 2): DIQMTQSSSSFSVSLGDRVTITCKASEDIYNRLAWYQQKPGNTPRLLISGATSLETGVPSRFSGSGSGKDFTLSITSLQTEDVATYYCQQYWSLPWTFGGGTKLEIK scFv (part 2 of 2): EVQLHQSGPELVKPGTSVKISCKASGYTFTDYYMNWVKQSHGKSLEWIGDINPNHGDTGYNQKFTGKATLTVDKSSSTAYMELRSLTSEDSAVYYCARNFFYYGTTYGWYFDVWGTGTTVTVSS	binds	binds	0.08	0.06	–	–	–

Reference: patent EP4786492A1 (Simcere Zaiming Pharmaceutical Co., Ltd., dated 2026)
